Data set [1] deals with PPR2.0t15 (synthetic designer (scaffold from Arabidopsis PPR consensus)). Nature of the data set: EMSA. The following applies: apparent; EMSA: 20 mM Tris-HCl pH 8.0, 150 mM NaCl, 0.5% NP-40, 1 mM DTT, 1 mM EDTA, 0.2 pmol biotin-RNA in 10 uL, 6% PAGE in 0.5x TBE; temperature not stated; RBP-ELISA ….
Data set [2] shares this test system. In words: RBP-ELISA. The following applies: cell lysate, EMSA: 20 mM Tris-HCl pH 8.0, 150 mM NaCl, 0.5% NP-40, 1 mM DTT, 1 mM EDTA, 0.2 pmol biotin-RNA in 10 uL, 6% PAGE in 0.5x TBE, temperature not stated.
Data set [3] deals with PPR2.0t5 (synthetic designer (scaffold from Arabidopsis PPR consensus)). Nature of the data set: EMSA. The following applies: apparent; EMSA: 20 mM Tris-HCl pH 8.0, 150 mM NaCl, 0.5% NP-40, 1 mM DTT, 1 mM EDTA, 0.2 pmol biotin-RNA in 10 uL, 6% PAGE in 0.5x TBE; temperature not stated; RBP-ELISA ….
For data set [4] the test system is unchanged. In words: RBP-ELISA. The following applies: cell lysate, EMSA: 20 mM Tris-HCl pH 8.0, 150 mM NaCl, 0.5% NP-40, 1 mM DTT, 1 mM EDTA, 0.2 pmol biotin-RNA in 10 uL, 6% PAGE in 0.5x TBE, temperature not stated.
Data set [5] has as its system PPR2.0t8 (synthetic designer (scaffold from Arabidopsis PPR consensus)). In words: EMSA. As to conditions: apparent; EMSA: 20 mM Tris-HCl pH 8.0, 150 mM NaCl, 0.5% NP-40, 1 mM DTT, 1 mM EDTA, 0.2 pmol biotin-RNA in 10 uL, 6% PAGE in 0.5x TBE; temperature not stated; RBP-ELISA ….
Data set [6] has the same test system. In words: RBP-ELISA. As to conditions: cell lysate, EMSA: 20 mM Tris-HCl pH 8.0, 150 mM NaCl, 0.5% NP-40, 1 mM DTT, 1 mM EDTA, 0.2 pmol biotin-RNA in 10 uL, 6% PAGE in 0.5x TBE, temperature not stated.
Data set [7] deals with PPR2.0t23 (synthetic designer (scaffold from Arabidopsis PPR consensus)). In words: EMSA. The following applies: apparent; EMSA: 20 mM Tris-HCl pH 8.0, 150 mM NaCl, 0.5% NP-40, 1 mM DTT, 1 mM EDTA, 0.2 pmol biotin-RNA in 10 uL, 6% PAGE in 0.5x TBE; temperature not stated; RBP-ELISA ….
The test system is the same in data set [8]. In words: RBP-ELISA. As to conditions: cell lysate, EMSA: 20 mM Tris-HCl pH 8.0, 150 mM NaCl, 0.5% NP-40, 1 mM DTT, 1 mM EDTA, 0.2 pmol biotin-RNA in 10 uL, 6% PAGE in 0.5x TBE, temperature not stated.
Data set [9] concerns PPR2.0t3 (synthetic designer (scaffold from Arabidopsis PPR consensus)). In words: EMSA. The following applies: apparent; EMSA: 20 mM Tris-HCl pH 8.0, 150 mM NaCl, 0.5% NP-40, 1 mM DTT, 1 mM EDTA, 0.2 pmol biotin-RNA in 10 uL, 6% PAGE in 0.5x TBE; temperature not stated; RBP-ELISA ….
For data set [10] the test system is unchanged. Nature of the data set: RBP-ELISA. As to conditions: cell lysate, EMSA: 20 mM Tris-HCl pH 8.0, 150 mM NaCl, 0.5% NP-40, 1 mM DTT, 1 mM EDTA, 0.2 pmol biotin-RNA in 10 uL, 6% PAGE in 0.5x TBE, temperature not stated.
Data set [11] has as its system PPR2.0t1 (synthetic designer (scaffold from Arabidopsis PPR consensus)). In words: EMSA. The following applies: apparent; EMSA: 20 mM Tris-HCl pH 8.0, 150 mM NaCl, 0.5% NP-40, 1 mM DTT, 1 mM EDTA, 0.2 pmol biotin-RNA in 10 uL, 6% PAGE in 0.5x TBE; temperature not stated; RBP-ELISA ….
Data set [12] has the same test system. Nature of the data set: RBP-ELISA. As to conditions: cell lysate, EMSA: 20 mM Tris-HCl pH 8.0, 150 mM NaCl, 0.5% NP-40, 1 mM DTT, 1 mM EDTA, 0.2 pmol biotin-RNA in 10 uL, 6% PAGE in 0.5x TBE, temperature not stated.
The test system of data set [13] is PPR2.0t11 (synthetic designer (scaffold from Arabidopsis PPR consensus)). Nature of the data set: EMSA. The following applies: apparent; EMSA: 20 mM Tris-HCl pH 8.0, 150 mM NaCl, 0.5% NP-40, 1 mM DTT, 1 mM EDTA, 0.2 pmol biotin-RNA in 10 uL, 6% PAGE in 0.5x TBE; temperature not stated; RBP-ELISA ….
Data set [14] shares this test system. In words: RBP-ELISA. As to conditions: cell lysate, EMSA: 20 mM Tris-HCl pH 8.0, 150 mM NaCl, 0.5% NP-40, 1 mM DTT, 1 mM EDTA, 0.2 pmol biotin-RNA in 10 uL, 6% PAGE in 0.5x TBE, temperature not stated.
Data set [15] deals with PPR2.0t2 (synthetic designer (scaffold from Arabidopsis PPR consensus)). In words: EMSA. As to conditions: apparent; EMSA: 20 mM Tris-HCl pH 8.0, 150 mM NaCl, 0.5% NP-40, 1 mM DTT, 1 mM EDTA, 0.2 pmol biotin-RNA in 10 uL, 6% PAGE in 0.5x TBE; temperature not stated; RBP-ELISA ….
The test system is the same in data set [16]. In words: RBP-ELISA. The following applies: cell lysate, EMSA: 20 mM Tris-HCl pH 8.0, 150 mM NaCl, 0.5% NP-40, 1 mM DTT, 1 mM EDTA, 0.2 pmol biotin-RNA in 10 uL, 6% PAGE in 0.5x TBE, temperature not stated.
For data set [17], the system named is PPR2.0t14 (synthetic designer (scaffold from Arabidopsis PPR consensus)). In words: EMSA. The following applies: apparent; EMSA: 20 mM Tris-HCl pH 8.0, 150 mM NaCl, 0.5% NP-40, 1 mM DTT, 1 mM EDTA, 0.2 pmol biotin-RNA in 10 uL, 6% PAGE in 0.5x TBE; temperature not stated; RBP-ELISA ….
Data set [18] shares this test system. In words: RBP-ELISA. As to conditions: cell lysate, EMSA: 20 mM Tris-HCl pH 8.0, 150 mM NaCl, 0.5% NP-40, 1 mM DTT, 1 mM EDTA, 0.2 pmol biotin-RNA in 10 uL, 6% PAGE in 0.5x TBE, temperature not stated.
The test system of data set [19] is PPR2.0t4 (synthetic designer (scaffold from Arabidopsis PPR consensus)). Nature of the data set: EMSA. As to conditions: apparent; EMSA: 20 mM Tris-HCl pH 8.0, 150 mM NaCl, 0.5% NP-40, 1 mM DTT, 1 mM EDTA, 0.2 pmol biotin-RNA in 10 uL, 6% PAGE in 0.5x TBE; temperature not stated; RBP-ELISA ….
Data set [20] shares this test system. Nature of the data set: RBP-ELISA. The following applies: cell lysate, EMSA: 20 mM Tris-HCl pH 8.0, 150 mM NaCl, 0.5% NP-40, 1 mM DTT, 1 mM EDTA, 0.2 pmol biotin-RNA in 10 uL, 6% PAGE in 0.5x TBE, temperature not stated.
The test system of data set [21] is PPR2.0t24 (synthetic designer (scaffold from Arabidopsis PPR consensus)). Nature of the data set: EMSA. The following applies: apparent; EMSA: 20 mM Tris-HCl pH 8.0, 150 mM NaCl, 0.5% NP-40, 1 mM DTT, 1 mM EDTA, 0.2 pmol biotin-RNA in 10 uL, 6% PAGE in 0.5x TBE; temperature not stated; RBP-ELISA ….
Data set [22] concerns PPR2.0t19 (synthetic designer (scaffold from Arabidopsis PPR consensus)). In words: EMSA. The following applies: apparent; EMSA: 20 mM Tris-HCl pH 8.0, 150 mM NaCl, 0.5% NP-40, 1 mM DTT, 1 mM EDTA, 0.2 pmol biotin-RNA in 10 uL, 6% PAGE in 0.5x TBE; temperature not stated; RBP-ELISA ….
Data set [23] shares this test system. In words: RBP-ELISA. As to conditions: cell lysate, EMSA: 20 mM Tris-HCl pH 8.0, 150 mM NaCl, 0.5% NP-40, 1 mM DTT, 1 mM EDTA, 0.2 pmol biotin-RNA in 10 uL, 6% PAGE in 0.5x TBE, temperature not stated.

With “GACAUGCAAGGAUAAUAUCAAACACGACUG [Probe_t15]”, the Kd in data set [1] worked out at 41 nM. Also, the binding signal in data set [2] was 2.84e+07 luminescence.

Turning to “GACAUGCCAACAUCAGUCUGAUAAGGACUG [Probe_t5]”, the Kd in data set [3] came to 167 nM. In [4], this sequence had a binding signal of 1.67e+07 luminescence.

In the case of “GACAUGCCACUAUUUAAGUUAUCAAGACUG [Probe_t8]”, the Kd in [5] stood at 1.95 nM. In addition, the binding signal in [6] worked out at 4.7e+07 luminescence.

Regarding “GACAUGCCCCAUAGAUGUGACAAGCGACUG [Probe_t23]”, the Kd in data set [7] stood at 10.4 nM. The sequence further showed a binding signal in [8] of 3.27e+07 luminescence.

Take “GACAUGCCUGAGUCAUAACCAGCCUGACUG [Probe_t3]”: the Kd in [9] is 59.2 nM. This sequence also registered a binding signal in [10] of 3.35e+07 luminescence.

With “GACAUGCGAAUGAACUCUUCCGGGAGACUG [Probe_t1]”, the Kd in data set [11] was 3.45 nM. This sequence also yielded a binding signal in data set [12] of 6.64e+07 luminescence.

With “GACAUGCGACUCAGGAAUCGGCUCUGACUG [Probe_t11]”, the Kd in [13] is 63.3 nM. Besides, the binding signal in [14] worked out at 3.78e+07 luminescence.

Regarding “GACAUGCGAGAGGAAGCCUGAGAGUGACUG [Probe_t2]”, the Kd in data set [15] stood at 4 nM. Besides, in [16], the binding signal came to 5.68e+07 luminescence.

For “GACAUGCGCAGAUAAUUAAUAAGAAGACUG [Probe_t14]”, the Kd in [17] stood at 197 nM. This sequence registered a binding signal in data set [18] of 1.33e+07 luminescence.

Consider “GACAUGCGGCAAAAAGAUCACUGUAGACUG [Probe_t4]”, for which the Kd in data set [19] was determined as 2.57 nM. In data set [20], this sequence came in with a binding signal of 5.98e+07 luminescence.

With “GACAUGCGGCGGGGCACUGUGCGUGGACUG [Probe_t24]”, the Kd in [21] amounted to 11 nM.

Take “GACAUGCGUGAUGUGGAGUUAAGGCGACUG [Probe_t19]”: the Kd in data set [22] was found to be 173 nM. This sequence also returned a binding signal in [23] of 1.19e+07 luminescence.

The record behind these values is article PMC9688318, “Construction of a Versatile, Programmable RNA-Binding Protein Using Designer PPR Proteins and Its Application for Splicing Control in Mammalian Cells”.
